# Measurements from US20170037149A1 (Amgen, published 2017).
# Molecular target: T1, human FLT3 (human, UniProt P36888 27-993)
# T1 construct: On transfected CHO cells, or on the FLT3 positive human AML cell lines EOL-1 / MV4-11 where the row says so; also called hu FLT3; full length human FLT3
# Experiment: FACS, scFv on CHO-human FLT3 pre-incubated with FLT3 ligand (competitor)
# Procedure: The detection was performed using mouse anti-FLAG+PE-conjugated goat anti-mouse and the Fluorescence median detected by FACS (median (+ligand)/median (w/o ligand)*100%)
# Afterwards cells were not washed but directly stained with FLT3 binder (scFv's). […] As negative control, cells were incubated with an unspecific scFv instead of FLT3 scFv.
# For the evaluation of the data, the fluorescence median was detected by FACS.
row,median [+ligand]/median [w/o ligand]*100,Binder
1,≥ 75%,"FL-14 scFv (scFv, periplasmic prep) scFv: QVTLKESGPALVKPTETLTLTCTLSGFSLNNARMAVSWIRQPPGKTLEWLAHIFSNDEKSYSTSLKSRLTISKDTSKGQVVLTMTNMDPVDTATYYCARIVGYGSGWYGYFDYWGQGTLVTVSSGGGGSGGGGSGGGGSDIQMTQSPSSLSASVGDRVTITCRASQDIRNDLGWYQQKPGKAPKRLIYAASTLQSGVPSRFSGSGSGTEFTLTISSLQPEDFATYYCLQHNSYPLTFGGGTKVEIK"
2,≥ 75%,"FL-6 scFv (scFv, periplasmic prep) scFv: QVTLKESGPTLVKPTETLTLTCTLSGFSLNNARMAVSWIRQPPGKTLEWLAHIFSNDEKSYSPSLKSRLTISKDTSKSQVVLTMTNMDPEDTATYYCARIVGYGTGWYGFFDYWGQGILVTVSSGGGGSGGGGSGGGGSDIQMTQSPSSLSASVGDRVTITCRASQGIRNDLGWFQQKPGKAPKRLIYAASVLQSGVPSRFSGSGSGTEFTLTISSLQPEDFATYYCLQHNSYPLTFGGGTKVDIK"
3,≥ 75%,"FL-16 scFv (scFv, periplasmic prep) scFv: QVTLKESGPVLVKPTETLTLTCTVSGFSLRNARMAVSWIRQPPGKTLEWLAHIFSNDEKSYSTSLKSRLTISKDTSKSQVVLTMTNMDPVDTATYYCARIVGYGSGWYGYFDYWGQGTLVTVSSGGGGSGGGGSGGGGSDIQMTQSPSSVSASVGDRVTITCRASQDIRYDLAWYQQKPGKAPKRLIYAASSLQSGVPSRFSGSGSGTEFTLTISSLQPEDFATYYCLQHNFYPLTFGGGTKVEIK"
4,≥ 75%,"FL-15 scFv (scFv, periplasmic prep) scFv: QVTLKESGPALVKPTETLTLTCTLSGFSLNNARMAVSWIRQPPGKTLEWLAHIFSNDEKSYSTSLKSRLTISKDTSKGQVVLTMTNMDPVDTATYYCARIVGYGSGWYGYFDYWGQGTLVTVSSGGGGSGGGGSGGGGSDIQMTQSPSSLSASVGDRVTITCRASQDIGNDLGWYQQKPGKAPKRLIYAASSLQSGVPSRFSGSGSGTEFTLTISSLQPEDFATYYCLQHNSYPLTFGGGTKVEIK"
5,≥ 75%,"FL-29 scFv (scFv, periplasmic prep) scFv: QVTLKESGPALVKPTQTLTLTCTFSGFSLSNARMGVSWIRQPPGKALEWLAHIFSNDEKSYRTSLKSRLTISKDTSKSQVVLTMTNMDPVDTATYYCARIVGYGSGWYAYFDYWGQGTLVTVSSGGGGSGGGGSGGGGSDIQMTQSPSSLSASVGDRVTITCRASQGIRNDLGWYQQKPGKAPKRLIYAASSLQSGVPSRFSGSGSGTEFTLTISSLQPEDFATYYCLQHNSYPLTFGGGTKVEIK"
6,≥ 75%,"FL-20 scFv (scFv, periplasmic prep) scFv: QVTLKESGPALVKPTETLTLTCTLSGFSLNNARMAVSWIRQPPGKTLEWLAHIFSNDEKSYSTSLKSRLTISKDTSKSQVVLTMTNMDPEDTATYYCARIVGYGTGWYGFFDYWGQGILVTVSSGGGGSGGGGSGGGGSDIQMTQSPSSLSASVGDRVTITCRASQGIRNDLAWYQQKPGKAPKRLIYAASSLQSGVPSRFSGSGSGTEFTLTISSLQPEDFATYYCLQHNSYPLTFGGGTKVEIK"
7,≥ 75%,"FL-12 scFv (scFv, periplasmic prep) scFv: QVTLKESGPALVKPTETLTLTCTVSGFSLSNARMGVSWIRQPPGKALEWLANIFSNDEKSYSTSLKSRLTISKGTSKSQVVLTMTNMDPEDTATYYCARIVGYGSGWYGYFDYWGQGTLVTVSSGGGGSGGGGSGGGGSDIQMTQSPSSLSASVGDRVTITCRASQGIRNDLGWYQQKPGKAPQRLIYAASSLQSGVPSRFSGSGSGTEFTLTISSLQPEDFATYYCLQHNSYPLTFGGGTKVEIK"
8,≥ 75%,"FL-33 scFv (scFv, periplasmic prep) scFv: QVTLKESGPVLVKPTETLTLTCTVSGFSLRNARMGVSWIRQPPGKTLEWLAHIFSNDEKSYSTSLKSRLTISKDTSKGQVVLTMTNMDPVDTATYYCARIVGYGSGWYGYFDYWGQGTLVTVSSGGGGSGGGGSGGGGSDIQMTQSPSSLSASVGDRVTITCRASQGIGDDLGWYQQIPGKAPKRLIYATSVLQSGVPSRFSGSGSGTEFTLTISSLQPEDFATYYCLQHNSYPLTFGGGTKLEIK"
9,≥ 75%,"FL-39 scFv (scFv, periplasmic prep) scFv: QVTLKESGPTLVKPTETLTLTCTLSGFSLNNARMGVSWIRQPPGKCLEWLAHIFSNDEKSYSTSLKNRLTISKDSSKTQVVLTMTNVDPVDTATYYCARIVGYGSGWYGFFDYWGQGTLVTVSSGGGGSGGGGSGGGGSDIQMTQSPSSLSASVGDRVTITCRASQGIRNDLGWYQQKPGKAPKRLIYAASTLQSGVPSRFSGSGSGTEFTLTISSLQPEDFATYYCLQHNSYPLTFGCGTKVEIK"
10,≥ 75%,"FL-4 scFv (scFv, periplasmic prep) scFv: QVTLKESGPALVKPTETLTLTCTLSGFSLNNAKMGVSWIRQPPGKALEWLAHIFSNDEKSYSTSLKSRLTISKDTSKGQVVLTMTNMDPVDTATYYCARIVGYGSGWYGYFDYWGQGTLVTVSSGGGGSGGGGSGGGGSDIQMTQSPSSLSASVGDRVTITCRASQDIRDDLGWYQQKPGNAPKRLIYGASTLQSGVPSRFSGSGSGTEFTLTISSLQPEDFATYYCLQHNSYPLTFGGGTKVDIK"
11,≥ 75%,"FL-13 scFv (scFv, periplasmic prep) scFv: QVTLKESGPTLVKPTETLTLTCTLSGFSLNNARMGVSWIRQPPGKALEWLAHIFSNDEKSYSTSLKNRLTISKDSSKTQVVLTMTNVDPVDTATYYCARIVGYGSGWYGFFDYWGQGTLVTVSSGGGGSGGGGSGGGGSDIQMTQSPSSLSASVGDRVTITCRASQGIRNDLGWYQQKPGKAPKRLIYAASTLQSGVPSRFSGSGSGTEFTLTISSLQPEDFATYYCLQHNSYPLTFGGGTKVEIK"
12,≥ 75%,"FL-11 scFv (scFv, periplasmic prep) scFv: QVTLKESGPVLVKPTETLTLTCTLSGFSLNNAKMGVSWIRQPPGKALEWLAQIFSNGEKSYSTSLKSRLTISKDTSKGQVVLTMTNMDPVDTATYYCSRIVGYGSGWYGYFDYWGQGTLVTVSSGGGGSGGGGSGGGGSDIQMTQSPSSLSASVGDRVTITCRASQGIRNDLGWYQQKPGKAPKRLIYGASTLQSGVPSRFSGSGSGTEFTLTISSLQPEDFATYYCLQHNSYPLTFGGGTKVEIK"
13,≥ 75%,"FL-32 scFv (scFv, periplasmic prep) scFv: QVTLKESGPTLVKPTETLTLTCTVSGFSFRNARMGVSWIRQPPGKALEWLAHIFSNDEKSYSTSLKSRLTISKDTSKGQVVLTMTNMDPVDTATYYCARIVGYGSGWYGYFDYWGQGTLVTVSSGGGGSGGGGSGGGGSDIQMTQSPSSLSASVGDRVTITCRASQGIRNDLVWYQQKPGKAPKRLIYAASTLQSGVPSRFSGSGSGTEFILTISSLQPEDFATYFCLQHYSYPLTFGGGTKLEIK"
14,≥ 75%,"FL-59 scFv (scFv, periplasmic prep) scFv: QVTLKESGPMLVKPTETLTLTCTVSGFSLRNVRMGVSWIRQPPGKALEWLAHIFSNDEKSYSTSLKSRLTISKDTSKSQVVLTLTNMDPVDTATYFCARMPEYSSGWSGAFDIWGQGTMVTVSSGGGGSGGGGSGGGGSDIQMTQSPSSLSASVGDRVTITCRASQDIRDDLGWYQQKPGNAPKRLIYGASTLQSGVPSRFSGSGSGTEFTLTISSLQPEDFATYYCLQHNSYPLTFGGGTRLEIK"
